Values belong to the molecule of their own block, whether it stands above or below them. Where no end group is shown, it is not given here.
Assays:
[1] = molecular target: T1, human PTH/PTHrP receptor (PTH1R) (human, UniProt Q03431 27-593); assay: cell-based or functional assay
T1 sequence (looked up): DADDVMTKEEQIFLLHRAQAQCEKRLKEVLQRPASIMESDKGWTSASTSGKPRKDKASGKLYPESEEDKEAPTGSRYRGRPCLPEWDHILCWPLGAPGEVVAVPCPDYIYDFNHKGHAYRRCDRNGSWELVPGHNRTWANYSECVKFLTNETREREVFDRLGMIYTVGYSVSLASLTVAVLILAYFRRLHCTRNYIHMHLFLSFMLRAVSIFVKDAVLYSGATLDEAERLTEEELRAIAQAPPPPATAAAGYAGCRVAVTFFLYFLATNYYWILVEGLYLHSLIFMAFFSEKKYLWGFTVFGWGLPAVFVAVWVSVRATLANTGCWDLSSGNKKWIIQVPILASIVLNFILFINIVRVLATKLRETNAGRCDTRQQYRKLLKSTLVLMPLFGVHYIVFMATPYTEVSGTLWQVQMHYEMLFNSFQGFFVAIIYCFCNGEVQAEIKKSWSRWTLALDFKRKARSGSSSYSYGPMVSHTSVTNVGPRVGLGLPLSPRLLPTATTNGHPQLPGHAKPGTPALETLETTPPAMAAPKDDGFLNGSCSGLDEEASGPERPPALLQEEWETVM

[2] = molecular target: T2, PTH1R (Homo sapiens, UniProt Q03431); assay: Inhibition of agonist-stimulated cAMP accumulation in HKrk-B7 cells; type: cell-based; parameters: expressed in transfected cells; settings: agonist PTH(1-34), PTHrP(1-36) or PTHrP(1-20)/TIP(23-39) at 1 nM (about half-maximal)
T2 sequence (Q03431 27-593): T1 sequence (looked up)
Text: FIG. 4A-4F. Inhibition of agonist-stimulated cAMP accumulation in HKrk-B7 cells (FIG. 4A-4C) or SaOS-2 cells (FIG. 4D-4F). […] Data are expressed as % of half-maximal cAMP accumulation and represent the results (mean±SE) of at least three independent experiments.
Na^125I (specific activity: 2,000 Ci/mmol) was purchased from DuPont/NEN, Boston, Mass. Fetal bovine serum, 3-isobutyl-1-methyl-xanthine (IBMX), and BSA were from Sigma, St. Louis, Mo., and trifluoroacetic acid (TFA) was from Pierce, Rockford, Ill. Radiolabeled rPTH(1-34) and PTHrP(1-36) were prepared by the chloramine-T method, followed by HPLC purification using a 30-50% ACN/0.1% TFA gradient over 30 minutes; radioreceptor assays were performed in 24-well plates as previously described (Gardella, T. J., et al., J. Biol. Chem. 271:19888-19893 (1996); Fukayama, S. et al., Endocrinology 134:1851-1858 (1994)). […] The entire lysate was counted for γ-irradiation. Specific binding was determined after subtracting radioactivity bound in the presence of maximal concentrations of unlabeled competing peptide (10^−6 M). […] Data were analyzed and graphically illustrated using the graph-pad prism software package.

[3] = molecular target: T1, human PTH/PTHrP receptor (PTH1R); assay: cell-based or functional assay; remark: listed apart in the source
[4] = molecular target: T1, human PTH/PTHrP receptor (PTH1R); assay: radioreceptor competition on HKrk-B7 cells
Protocol: (§1) Specific binding was determined after subtracting radioactivity bound in the presence of maximal concentrations of unlabeled competing peptide (10⁻⁶ M). Agonist-dependent stimulation of cAMP accumulation by HKrk-B7 and SaOS-2 cells (48-well plates; stimulation at room temperature for 45 minutes) and the subsequent measurement of cAMP by radioimmunoassay was performed as previously described (Gardella, T. J., et al., J. Biol. Chem. 271:19888-19893 (1996); Bergwitz, C., et al., Endocrinology 139:723-732 (1998)). Data were analyzed and graphically illustrated using the graph-pad prism software package.

[5] = molecular target: T1, human PTH/PTHrP receptor (PTH1R); assay: radioreceptor competition on HKrk-B7 cells; either tracer
Protocol: as §1

[6] = molecular target: T1, human PTH/PTHrP receptor (PTH1R); assay: radioreceptor competition on HKrk-B7 cells; tracer 125I-[Tyr36]PTHrP(1-36)amide
Protocol: (§2) Na¹²⁵I (specific activity: 2,000 Ci/mmol) was purchased from DuPont/NEN, Boston, Mass. Fetal bovine serum, 3-isobutyl-1-methyl-xanthine (IBMX), and BSA were from Sigma, St. Louis, Mo., and trifluoroacetic acid (TFA) was from Pierce, Rockford, Ill. […] After 4 h at 16° C., buffer was completely removed, the cells were rinsed with cold BB and lysed with 1 M NaOH. The entire lysate was counted for γ-irradiation. Specific binding was determined after subtracting radioactivity bound in the presence of maximal concentrations of unlabeled competing peptide (10⁻⁶ M). Agonist-dependent stimulation of cAMP accumulation by HKrk-B7 and SaOS-2 cells (48-well plates; stimulation at room temperature for 45 minutes) and the subsequent measurement of cAMP by radioimmunoassay was performed as previously described (Gardella, T. J., et al., J. Biol. Chem. 271:19888-19893 (1996); Bergwitz, C., et al., Endocrinology 139:723-732 (1998)). Data were analyzed and graphically illustrated using the graph-pad prism software package.

[7] = molecular target: T1, human PTH/PTHrP receptor (PTH1R); assay: radioreceptor competition on HKrk-B7 cells; tracer 125I-rat [Nle8,21,Tyr34]PTH(1-34)amide
Protocol: as §2

IC50 of inhibition of agonist-stimulated cAMP accumulation, HKrk-B7 cells [1]: 100 nM
Molecule: [Leu^11, D-Trp^12, Trp^23, Tyr^36]PTHrP(7-36)amide (from UniProt P12272 43-72) (peptide)

IC50 [2]: ~100 nM
Molecule: CC[C@H](C)[C@H](NC(=O)[C@H](CC(C)C)NC(=O)[C@H](Cc1c[nH]cn1)NC(=O)[C@H](Cc1c[nH]cn1)NC(=O)[C@H](CC(C)C)NC(=O)[C@H](Cc1c[nH]c2ccccc12)NC(=O)[C@H](Cc1ccccc1)NC(=O)[C@H](CCCNC(=N)N)NC(=O)[C@H](CCCNC(=N)N)NC(=O)[C@H](CCCNC(=N)N)NC(=O)[C@H](CC(C)C)NC(=O)[C@H](CC(=O)O)NC(=O)[C@H](CCC(N)=O)NC(=O)[C@@H](NC(=O)[C@H](CO)NC(=O)[C@H](CCCCN)NC(=O)[C@@H](Cc1c[nH]c2ccccc12)NC(=O)[C@H](CC(C)C)NC(=O)[C@H](CC(=O)O)NC(=O)[C@H](Cc1c[nH]cn1)NC(=O)[C@H](CC(C)C)NC(=O)[C@@H](N)CC(C)C)[C@@H](C)CC)C(=O)N[C@@H](C)C(=O)N[C@@H](CCC(=O)O)C(=O)N[C@H](C(=O)N[C@@H](Cc1c[nH]cn1)C(=O)N[C@H](C(=O)N[C@@H](C)C(=O)N[C@@H](CCC(=O)O)C(=O)N[C@@H](Cc1ccc(O)cc1)C(N)=O)[C@@H](C)O)[C@@H](C)CC [PTHrP(7-36), [Leu^11, D-Trp^12, Trp^23, Tyr^36]PTHrP(7-36)amide]

IC50 of inhibition of agonist-stimulated cAMP accumulation, HKrk-B7 cells (agonists PTH(1-34), PTHrP(1-36) or PTHrP(1-20)/TIP(23-39), 1 nM) [3]: 300 nM
fold higher apparent binding affinity in comparison to the parent peptide TIP(1-39) [4]: ~5.5 fold
fold improvement in apparent binding affinity relative to TIP(1-39) [5]: ≤ 6 fold
IC50 [6]: 44 nM
IC50 [7]: 39 nM
Molecule: AFRERARLLAALERRHWLNSYMHKLLVLDAP (not fully specified (C-terminus), also called human TIP-(9-39)) [TIP(9-39)]
